# In publication PMC6165294, “The Effect of Ca^2+, Lobe-Specificity, and CaMKII on CaM Binding to NaV1.1” (International Journal of Molecular Sciences, 2018):
# Ends that are not written are not given here.
# B1: GST-fusion NaV1.1 IQ domain, potential CaMKII phosphorylation sites mutant (T1909A + S1918A + T1934A) (domain or fragment)
# chain: ALKRKQEEVAAVIIQRAYRRHLLKRAVK
# modifications: not fully specified (N-terminus); also: GST fusion protein
# notes: IQ domain of human NaV1.1, amino acids 1909-1936, with T1909A, S1918A and T1934A; the treated samples are kept as one molecule; also called mutated NaV1.1 IQ; source: E. coli BL21 (DE3), GST fusion purified on Glutathione Sepharose 4B beads
# Target: T1, calmodulin (CaM), human, wild type (human, UniProt P0DP23 1-149)
# T1 construct: human calmodulin, subcloned from HEK293 cells; Vector pGEX-6P-1; also called wt CaM; apoCaM; source: E. coli BL21 (DE3), GST fusion purified on Glutathione Sepharose 4B; GST cleaved with PreScission Protease
# Test: pull-down; GST-fusion mutated IQ (T1909A, S1918A, T1934A), treated with CaMKII and CIP, incubated with a fixed concentration of CaM (1.4 uM); [Ca2+] ≈ free; Coomassie stain
# Details: both partners purified
binder,measurement,value
B1,binding result,binds
